Measurements as given in paper doi:10.1101/2024.02.08.579428.

T1: GUN1-FL (Arabidopsis thaliana, UniProt Q9SIC9 1-918)
T1 sequence: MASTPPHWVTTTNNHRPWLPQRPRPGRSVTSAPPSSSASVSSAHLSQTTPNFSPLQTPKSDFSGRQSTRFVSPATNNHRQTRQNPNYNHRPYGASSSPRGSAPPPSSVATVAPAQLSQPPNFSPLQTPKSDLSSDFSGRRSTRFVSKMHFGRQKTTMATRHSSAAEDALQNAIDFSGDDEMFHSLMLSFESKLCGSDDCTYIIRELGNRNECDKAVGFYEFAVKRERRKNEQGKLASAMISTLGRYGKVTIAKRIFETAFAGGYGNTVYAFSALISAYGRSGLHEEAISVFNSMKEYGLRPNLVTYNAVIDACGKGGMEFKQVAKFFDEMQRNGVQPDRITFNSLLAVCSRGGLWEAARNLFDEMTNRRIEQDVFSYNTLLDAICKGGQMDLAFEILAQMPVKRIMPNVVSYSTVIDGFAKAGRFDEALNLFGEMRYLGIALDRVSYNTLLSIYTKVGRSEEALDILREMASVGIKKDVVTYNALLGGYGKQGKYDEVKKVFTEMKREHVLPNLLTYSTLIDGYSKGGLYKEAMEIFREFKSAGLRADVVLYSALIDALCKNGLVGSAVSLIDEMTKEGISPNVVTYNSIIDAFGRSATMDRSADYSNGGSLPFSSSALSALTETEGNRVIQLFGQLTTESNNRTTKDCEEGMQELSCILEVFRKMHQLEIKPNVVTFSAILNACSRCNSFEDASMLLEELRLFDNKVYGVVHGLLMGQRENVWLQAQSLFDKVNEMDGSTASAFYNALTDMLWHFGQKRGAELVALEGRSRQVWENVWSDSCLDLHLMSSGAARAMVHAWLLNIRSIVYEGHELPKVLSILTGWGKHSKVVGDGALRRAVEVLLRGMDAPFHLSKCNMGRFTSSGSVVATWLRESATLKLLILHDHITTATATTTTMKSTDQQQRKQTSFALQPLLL

T2: GUN1-PS (Arabidopsis thaliana, UniProt Q9SIC9 232-918)
T2 sequence: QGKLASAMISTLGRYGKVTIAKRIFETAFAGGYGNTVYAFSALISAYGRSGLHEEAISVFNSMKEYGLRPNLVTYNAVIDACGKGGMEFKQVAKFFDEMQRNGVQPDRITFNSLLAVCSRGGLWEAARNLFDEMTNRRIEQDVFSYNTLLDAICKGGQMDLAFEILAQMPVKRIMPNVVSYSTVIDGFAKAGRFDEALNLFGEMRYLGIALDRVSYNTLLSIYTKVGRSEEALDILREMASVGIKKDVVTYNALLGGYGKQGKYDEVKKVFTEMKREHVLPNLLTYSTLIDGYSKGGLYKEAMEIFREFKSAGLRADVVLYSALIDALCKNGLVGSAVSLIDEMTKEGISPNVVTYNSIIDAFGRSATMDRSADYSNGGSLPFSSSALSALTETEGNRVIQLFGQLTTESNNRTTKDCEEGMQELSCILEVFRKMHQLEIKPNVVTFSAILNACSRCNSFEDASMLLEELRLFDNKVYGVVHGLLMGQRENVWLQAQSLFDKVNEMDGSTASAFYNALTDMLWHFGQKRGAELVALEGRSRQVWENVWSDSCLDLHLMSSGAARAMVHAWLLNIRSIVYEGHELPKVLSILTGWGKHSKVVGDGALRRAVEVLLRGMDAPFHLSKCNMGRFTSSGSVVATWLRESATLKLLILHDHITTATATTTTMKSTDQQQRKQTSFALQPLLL


Experiments:
[1] = molecular target: T1, GUN1-FL; assay: EMSA
[2] = molecular target: T2, GUN1-PS; assay: EMSA

| Binder | binding result [1] | binding result [2] |
| --- | --- | --- |
| AGAAAAAAAUCUGUUGAUAAAUGAA (ssRNA) [ndhG_118454] | binds |  |
| AAGAGACAACCUGGCGAACUGAAAC (ssRNA) [23S_104856] | binds | binds |
